Measured values: paper PMC8184850, “Cryo-EM structure of TFIIH/Rad4–Rad23–Rad33 in damaged DNA opening in nucleotide excision repair” (Nature Communications, 2021)
Values belong to the binder of their own block, whether it stands above or below them.

Legend:
[1] = molecular target: coreTFIIH (7 subunits) (Saccharomyces cerevisiae? (yeast, tfb6 …, UniProt Q00578;P06839;P32776;Q02939;Q04673;Q12004;Q3E7C1 …)); experiment: glycerol gradient sedimentation; ATP; EMSA: 20 mM HEPES, 100 mM K-acetate, 2 mM Mg-acetate, 5 mM DTT, room temperature 20 min, 250 nM each component, 0.2x TBE agarose gel at 4 C (pH not stated in this buffer); settings: protein: native; tags: TAP tags on Tfb4 and Ssl2; TEV-treated; copies: 1;1;1;1;1;1;1; label: 32P 5' end (T4 PNK) in EMSA; 5' overhang on strand 1: 9 nt from printed strands (text says 10 nt)
[2] = molecular target: T1, 10-subunit holoTFIIH (coreTFIIH with TFIIK: Kin28–Ccl1–Tfb3) (Saccharomyces cerevisiae | yeast, UniProt Q00578 1-843; P06839 1-778; P32776 1-642; Q02939 1-513; Q04673 1-461; Q12004 …); experiment: co-sedimentation; 10–40% glycerol gradient (20 mM HEPES, 150 mM potassium acetate, 2 mM magnesium acetate, 4 mM DTT, 2 mM ATP or AMP-PNP), 52,000 rpm 6 h 35 min, 4 °C; Rad4–Rad23–Rad33 pre-assembled on −24*/+24 AAF-DNA, then added to TFIIH; fractions by SDS-PAGE; settings: both partners purified
T1 construct: Ssl2 (XPB homologue), subunit of yeast TFIIH; Rad3 (XPD homologue), subunit of yeast TFIIH; Tfb1 (p62 homologue), subunit of yeast TFIIH; Tfb2 (p52 homologue), subunit of yeast TFIIH; Ssl1 (p44 homologue), subunit of yeast TFIIH; Tfb4 (p34 homologue), subunit of yeast TFIIH; Tfb5 (p8 homologue), subunit of yeast TFIIH; Kin28, kinase subunit of yeast TFIIK; Ccl1, cyclin subunit of yeast TFIIK; …

[3] = molecular target: T2, 7-subunit coreTFIIH (Saccharomyces cerevisiae | yeast, UniProt Q00578 1-843; P06839 1-778; P32776 1-642; Q02939 1-513; Q04673 1-461; Q12004 …); experiment: co-sedimentation; factor challenge: Rad2 added (~6-fold molar excess) to TFIIH/Rad4–23–33/AAF-DNA with ATP, 60 min, then 10–40% glycerol gradient (150 mM potassium acetate, 2 mM ATP), 4 °C; SDS-PAGE and densitometry; settings: both partners purified
T2 construct: Ssl2 (XPB homologue), ATPase/translocase subunit of yeast coreTFIIH; printed numbering runs to residue 843; Rad3 (XPD homologue), helicase subunit of yeast coreTFIIH; Tfb1 (p62 homologue), subunit of yeast coreTFIIH; Tfb2 (p52 homologue), subunit of yeast coreTFIIH; Ssl1 (p44 homologue), subunit of yeast coreTFIIH; Tfb4 (p34 homologue), subunit of yeast coreTFIIH; Tfb5 (p8 homologue), subunit of …

B1: -24*/+24 AAF (dsDNA)
DNA 1: CCCATTCCAACCATCCCACTACCTGTCCATCTTCACTCAACTATCACCC
DNA 2: GGGTGATAGTTGAGTGAAGATGGACAGGTAGTGGGATGGT
modifications: N-2-acetylaminofluorene adduct on the single G of strand 1 (nt 25, position 0)
binding result [1]: binds

binding result [2]: binds
B2: Rad4–Rad23–Rad33 complex (complex, yeast)
chain 1: MNEDLPKEYFELIRKALNEKEAEKAPLSRRRRVRRKNQPLPDAKKKFKTGLNELPRESVVTVNLDSSDDGVVTVPTDDSVEEIQSSEEDYDSEEFEDVTDGNEVAGVEDISVEIKPSSKRNSDARRTSRNVCSNEERKRRKYFHMLYLVCLMVHGFIRNEWINSKRLSRKLSNLVPEKVFELLHPQKDEELPLRSTRKLLDGLKKCMELWQKHWKITKKYDNVGLYMRTWKEIEMSANNKRKFKTLKRSDFLRAVSKGHGDPDISVQGFVAMLRACNVNARLIMSCQPPDFTNMKIDTSLNGNNAYKDMVKYPIFWCEVWDKFSKKWITVDPVNLKTIEQVRLHSKLAPKGVACCERNMLRYVIAYDRKYGCRDVTRRYAQWMNSKVRKRRITKDDFGEKWFRKVITALHHRKRTKIDDYEDQYFFQRDESEGIPDSVQDLKNHPYYVLEQDIKQTQIVKPGCKECGYLKVHGKVGKVLKVYAKRDIADLKSARQWYMNGRILKTGSRCKKVIKRTVGRPKGEAEEEDERLYSFEDTELYIPPLASASGEITKNTFGNIEVFAPTMIPGNCCLVENPVAIKAARFLGVEFAPAVTSFKFERGSTVKPVLSGIVVAKWLREAIETAIDGIEFIQEDDNRKEHLLGALESWNTLLLKLRIRSKLNSTYGKIAEEEPNVTKEQNIADNHDNTETFMGGGFLPGIANHEARPYSEPSEPEDSLDYVSVDKAEESATDDDVGEDYSDFMKELEMSEESD
chain 2: MVSLTFKNFKKEKVPLDLEPSNTILETKTKLAQSISCEESQIKLIYSGKVLQDSKTVSECGLKDGDQVVFMVSQKKSTKTKVTEPPIAPESATTPGRENSTEASPSTDASAAPAATAPEGSQPQEEQTATTERTESASTPGFVVGTERNETIERIMEMGYQREEVERALRAAFNNPDRAVEYLLMGIPENLRQPEPQQQTAAAAEQPSTAATTAEQPAEDDLFAQAAQGGNASSGALGTTGGATDAAQGGPPGSIGLTVEDLLSLRQVVSGNPEALAPLLENISARYPQLREHIMANPEVFVSMLLEAVGDNMQDVMEGADDMVEGEDIEVTGEAAAAGLGQGEGEGSFQVDYTPEDDQAISRLCELGFERDLVIQVYFACDKNEEAAANILFSDHAD
chain 3: MSKSTNVSYERVELFENPKVPIEVEDEILEKYAESSLDHDMTVNELPRFFKDLQLEPTIWKLVRNEDVIIEGTDVIDFTKLVRCTCQLLILMNNLTVIDDLWSMLIRNCGRDVDFPQVALRDHVLSVKDLQKISNLIGADQSSGTIEMISCATDGKRLFMTYLDFGCVLGKLGYLKM
notes: Rad4 (XPC homologue), yeast; Rad23 (RAD23B homologue), yeast; Rad33 (CETN2 homologue), yeast; plasmid pETDuet-RAD33; also called Rad4–23–33; yeast homologue of XPC–RAD23B–CETN2; copies: + +

percent of TFIIH dissociated from Rad4–Rad23–Rad33 and bound to Rad2 (Rad2 in ~6-fold molar excess, ATP) [3]: ~50%
B3: Rad2 (natural protein, yeast, UniProt P07276 1-1031, looked up)
chain: MGVHSFWDIAGPTARPVRLESLEDKRMAVDASIWIYQFLKAVRDQEGNAVKNSHITGFFRRICKLLYFGIRPVFVFDGGVPVLKRETIRQRKERRQGKRESAKSTARKLLALQLQNGSNDNVKNSTPSSGSSVQIFKPQDEWDLPDIPGFKYDKEDARVNSNKTFEKLMNSINGDGLEDIDLDTINPASAEFEELPKATQYLILSSLRLKSRLRMGYSKEQLETIFPNSMDFSRFQIDMVKRRNFFTQKLINTTGFQDGGASKLNEEVINRISGQKSKEYKLTKTNNGWILGLGANDGSDAQKAIVIDDKDAGALVKQLDSNAEDGDVLRWDDLEDNSLKIVRHESSNATTAPQKRSNRSEDEGCDSDECEWEEVELKPKNVKFVEDFSLKAARLPYMGQSLNNAGSKSFLDKRHDQASPSKTTPTMRISRISVEDDDEDYLKQIEEIEMMEAVQLSKMEKKPEADDKSKIAKPVTSKGTEARPPIVQYGLLGAQPDSKQPYHVTNLNSKSESVIKRTSKTVLSEFRPPSQQEDKGAILTEGEQNLNFISHKIPQFDFNNENSLLFQKNTESNVSQEATKEKSPIPEMPSWFSSTASQQLYNPYNTTNFVEDKNVRNEQESGAETTNKGSSYELLTGLNATEILERESEKESSNDENKDDDLEVLSEELFEDVPTKSQISKEAEDNDSRKVESINKEHRKPLIFDYDFSEDEEDNIVENMIKEQEEFDTFKNTTLSTSAERNVAENAFVEDELFEQQMKDKRDSDEVTMDMIKEVQELLSRFGIPYITAPMEAEAQCAELLQLNLVDGIITDDSDVFLFGGTKIYKNMFHEKNYVEFYDAESILKLLGLDRKNMIELAQLLGSDYTNGLKGMGPVSSIEVIAEFGNLKNFKDWYNNGQFDKRKQETENKFEKDLRKKLVNNEIILDDDFPSVMVYDAYMRPEVDHDTTPFVWGVPDLDMLRSFMKTQLGWPHEKSDEILIPLIRDVNKRKKKGKQKRINEFFPREYISGDKKLNTSKRISTATGKLKKRKM
notes: Rad2 (XPG homologue), yeast; plasmid pGVD52-RAD2HisSumo; also called yeast homolog of XPG; source: E. coli Rosetta(DE3), purified (HisTrap, Ulp1 cleavage, HisTrap flow-through, Heparin HP)
